Assay results reported in US20200231652A1.
Where two headings read alike, the source gives them in different places.

What was measured:
TGF-β1 [1] = target: TGF-β1 (UniProt P01137); experiment: cell-based or functional assay
TGF-β3 = TGF-β3 (UniProt P10600); experiment: cell-based or functional assay
TGF-β1 [2] = target: TGF-β1 (UniProt P01137)
TGF-β1 [3] = target: TGF-β1 (UniProt P01137); remark: listed apart in the source

TGF-β1, sequence (P01137 279-390 limits assumed): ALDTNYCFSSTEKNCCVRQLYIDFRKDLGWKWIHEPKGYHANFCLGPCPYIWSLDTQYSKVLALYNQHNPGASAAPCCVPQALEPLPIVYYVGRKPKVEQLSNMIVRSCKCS
T22d35, sequence (P37173 other isoform, or with tags, fused parts or gaps limits assumed): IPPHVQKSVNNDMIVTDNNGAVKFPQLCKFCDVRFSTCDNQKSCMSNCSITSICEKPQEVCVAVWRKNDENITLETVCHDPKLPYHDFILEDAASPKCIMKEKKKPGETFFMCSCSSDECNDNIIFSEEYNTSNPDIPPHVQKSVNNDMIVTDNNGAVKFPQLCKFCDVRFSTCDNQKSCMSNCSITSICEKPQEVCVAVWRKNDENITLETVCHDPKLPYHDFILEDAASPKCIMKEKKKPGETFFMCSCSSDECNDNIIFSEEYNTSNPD
TGF-β3, sequence (P10600 301-412 limits assumed): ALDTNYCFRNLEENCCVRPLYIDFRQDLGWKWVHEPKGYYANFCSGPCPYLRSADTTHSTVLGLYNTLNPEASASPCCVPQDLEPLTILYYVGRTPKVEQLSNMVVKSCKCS

In the case of T2-hIgG1Fc fusion from R&D, the Av IC50, TGF-β neutralization, Mv1Lu cell luciferase reporter assay (TGF-β1 [1]) was 506 pM and the Av IC50, TGF-β neutralization, Mv1Lu cell luciferase reporter assay (TGF-β3) was 323 pM.
“T22d35 (from UniProt P37173 24-222) (receptor)” showed an IC50, A549 cell IL-11 release assay [table] (TGF-β1 [2]) of 526 pM, an Av IC50, TGF-β neutralization, Mv1Lu cell luciferase reporter assay (TGF-β1 [1]) of 1230 pM and an IC50, A549 cell IL-11 release assay (TGF-β1 [1]) of 500 pM. It also gave an IC50, A549 cell IL-11 release assay (second set, FIG. 4C) (TGF-β1 [1]) of 500 pM, an Av IC50, TGF-β neutralization, Mv1Lu cell luciferase reporter assay (TGF-β3) of 33 pM and a Fold Change Fc-T2m, A549 cell IL-11 release assay [table] (TGF-β1 [3]) of 0.1 fold. The Fold Change T22d35, A549 cell IL-11 release assay [table] (TGF-β1 [3]) was 1 fold and the IC50, A549 cell IL-11 release assay [table] (TGF-β1 [3]) was 580 pM.
